Laboratory results: patent publication US20050208103A1, “Targeted transscleral controlled release drug delivery to the retina and choroid” (priority 1999, published 2005)

Columns and labels:
[1] = assay type: in vitro ADME, rabbit; conditions: not told
Description: Dutch-belted rabbits (Pine Acres Rabbitry, Vermont, Mass.), each weighing 2-3 kg, were anesthetized with intramuscular 40 mg/kg ketamine (Abbott, N. Chicago, Ill.) and 10 mg/kg xylazine (Bayer, Shawnee Mission, Kans.). Scleral thickness was measured using a RK-5000 ultrasound pachymeter (KMI Surgical Products, West Chester, Pa.). The eyes were enucleated immediately […] sacrifice and immersed in Unisol (Alcon, Ft. Worth, Tex.) for 10 minutes or less. The adherent muscles were excised and episcleral tissue was removed with a sterile gauze sponge. Areas free of nerve and vessel emissaries were used to obtain 7×12 mm slices of sclera under microscopic caliper guidance. Each piece of sclera was used on the day of isolation.
A 5×10 mm window, 2 mm from the bottom, was created on one face of a spectrophotometry polystyrene cuvette (Sigma, St. Louis, Mo.) using a Bridgeport vertical milling machine (Bridgeport, Bridgeport, Conn.), and a piece of sclera was blotted dry and placed over this window without stretching so as not to induce asymmetric stresses. A small amount of cyanoacrylate tissue adhesive (Ellman International, Hewlett, N.Y.) was applied to the entire boundary of the tissue rim to seal its cut surface to the cuvette and prevent leakage around the sclera, and a second identical cuvette was aligned with the first cuvette and glued in place over the tissue. After the glue polymerized, within 3 to 4 minutes, the cuvette facing the “orbital” surface of the sclera was filled with Unisol. The apparatus was discarded if leakage into the “uveal” chamber was observed. Unisol was replaced with diffusion medium (see below) and the apparatus was incubated at 37° C. in 5% CO2 atmosphere for 1 hour to restore normal hydration and temperature.
Hanks' balanced salt solution without phenol red, containing 1% glutamine-penicillin and streptomycin, tetracycline (48 μg/ml), and aprotinin (1.5 μg/ml) (all from Sigma), was used as the diffusion medium. Tetracycline and aprotinin were excluded from the medium for certain experiments with FITC-BSA to evaluate the effect of these proteolysis inhibitors on scleral permeability. The pH of all solutions ranged from 7.41 to 7.45.
Fluorescein isothiocyanate (FITC) conjugated dextrans ranging in molecular weight from 4 kDa to 150 kDa, FITC-bovine serum albumin (BSA), FITC-rabbit IgG (all from Sigma), rhodamine-conjugated dextran of molecular weight 70 kDa (Molecular Probes, Eugene, Oreg.), and sodium fluorescein (Akorn, Abita Springs, La.) were studied. At least 5 experiments were performed on each compound. […] Samples were protected from light at all times before fluorescence measurements. […]

[2] = Stokes-Einstein radius; cited from earlier work
[3] = Protein precipitation with trichloroacetic acid to test FITC linkage; set-up: species or system rabbit; conditions: supernatant fluorescence

| Compound | Permeability coefficient [1] | Permeability coefficient (mean ± sd) [1] | Molecular radius [2] [nm] | dissociation of the FITC conjugate after diffusion through sclera [3] |
| --- | --- | --- | --- | --- |
| O=C([O-])c1ccccc1-c1c2ccc(=O)cc-2oc2cc([O-])ccc12.[Na+].[Na+] [Sodium fluorescein, sodium fluorescein] | 76.3±24.1 ×10^−6 cm/s | 84.5±16.1 ×10^−6 cm/s | 0.5 |  |
| FITC-BSA: Fluorescein isothiocyanate conjugated bovine serum albumin (Sigma) | 5.21±1.85 ×10^−6 cm/s | 5.49±2.12 ×10^−6 cm/s | 3.62 | no significant dissociation |
